Test results published in patent publication US12564623B2, “Methods and compositions for treating cancer” (The University of Chicago, priority 2017, dated 2026).

T1: ELANE (Homo sapiens, UniProt P08246)
T1 construct: incubated the neutrophil conditioned media with magnetic beads coupled to an anti-ELANE antibody; endogenous in cells; host or cells: human peripheral blood neutrophils from healthy donors (conditioned media)
T1 sequence (P08246 30-267): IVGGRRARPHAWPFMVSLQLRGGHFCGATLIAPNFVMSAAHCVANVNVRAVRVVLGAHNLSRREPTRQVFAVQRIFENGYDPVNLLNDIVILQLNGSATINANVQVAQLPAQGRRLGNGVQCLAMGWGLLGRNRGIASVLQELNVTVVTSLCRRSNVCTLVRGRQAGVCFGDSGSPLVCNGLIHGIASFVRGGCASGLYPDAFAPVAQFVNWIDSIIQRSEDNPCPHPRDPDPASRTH

T2: CD95 (Homo sapiens, UniProt P25445)
T2 sequence (P25445 26-335): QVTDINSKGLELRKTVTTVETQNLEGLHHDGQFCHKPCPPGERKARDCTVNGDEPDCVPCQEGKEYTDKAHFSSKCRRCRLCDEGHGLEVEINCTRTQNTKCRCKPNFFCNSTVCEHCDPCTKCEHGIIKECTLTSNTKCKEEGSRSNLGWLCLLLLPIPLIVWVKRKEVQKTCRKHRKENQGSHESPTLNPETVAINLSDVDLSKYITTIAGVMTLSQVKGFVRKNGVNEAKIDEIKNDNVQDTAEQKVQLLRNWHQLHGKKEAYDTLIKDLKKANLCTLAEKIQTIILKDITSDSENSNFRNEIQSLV

B1: CASP3: purified human CASP3 (Abcam) (protein)
chain: MENTENSVDSKSIKNLEPKIIHGSESMDSGISLDNSYKMDYPEMGLCIIINNKNFHKSTGMTSRSGTDVDAANLRETFRNLKYEVRNKNDLTREEIVELMRDVSKEDHSKRSSFVCVLLSHGEEGIIFGTNGPVDLKKITNFFRGDRCRSLTGKPKLFIIQACRGTELDCGIETDSGVDDDMACHKIPVEADFLYAYSTAPGYYSWRNSKDGSWFIQSLCAMLKQYADKLEFMHILTRVNRKVATEFESFSFDATFHAKKQIPCIVSMLTKELYFYH
B2: murine neutrophil elastase (protein, listed as Mus musculus)
chain: MALGRLSSRTLAAMLLALFLGGPALASEIVGGRPARPHAWPFMASLQRRGGHFCGATLIARNFVMSAAHCVNGLNFRSVQVVLGAHDLRRQERTRQTFSVQRIFENGFDPSQLLNDIVIIQLNGSATINANVQVAQLPAQGQGVGDRTPCLAMGWGRLGTNRPSPSVLQELNVTVVTNMCRRRVNVCTLVPRRQAGICFGDSGGPLVCNNLVQGIDSFIRGGCGSGLYPDAFAPVAEFADWINSIIRSHNDHLLTHPKDREGRTN
B3: ANXA6: purified human ANXA6 (R&D Systems) (protein, UniProt P08133 2-673, looked up)
Annexin A6: AKPAQGAKYRGSIHDFPGFDPNQDAEALYTAMKGFGSDKEAILDIITSRSNRQRQEVCQSYKSLYGKDLIADLKYELTGKFERLIVGLMRPPAYCDAKEIKDAISGIGTDEKCLIEILASRTNEQMHQLVAAYKDAYERDLEADIIGDTSGHFQKMLVVLLQGTREEDDVVSEDLVQQDVQDLYEAGELKWGTDEAQFIYILGNRSKQHLRLVFDEYLKTTGKPIEASIRGELSGDFEKLMLAVVKCIRSTPEYFAERLFKAMKGLGTRDNTLIRIMVSRSELDMLDIREIFRTKYEKSLYSMIKNDTSGEYKKTLLKLSGGDDDAAGQFFPEAAQVAYQMWELSAVARVELKGTVRPANDFNPDADAKALRKAMKGLGTDEDTIIDIITHRSNVQRQQIRQTFKSHFGRDLMTDLKSEISGDLARLILGLMMPPAHYDAKQLKKAMEGAGTDEKALIEILATRTNAEIRAINEAYKEDYHKSLEDALSSDTSGHFRRILISLATGHREEGGENLDQAREDAQVAAEILEIADTPSGDKTSLETRFMTILCTRSYPHLRRVFQEFIKMTNYDVEHTIKKEMSGDVRDAFVAIVQSVKNKPLFFADKLYKSMKGAGTDEKTLTRIMVSRSEIDLLNIRREFIEKYDKSLHQAIEGDTSGDFLKALLALCGGED
B4: proteinase 3 (protein, listed as Homo sapiens)
chain: MAHRPPSPALASVLLALLLSGAARAAEIVGGHEAQPHSRPYMASLQMRGNPGSHFCGGTLIHPSFVLTAAHCLRDIPQRLVNVVLGAHNVRTQEPTQQHFSVAQVFLNNYDAENKLNDVLLIQLSSPANLSASVATVQLPQQDQPVPHGTQCLAMGWGRVGAHDPPAQVLQELNVTVVTFFCRPHNICTFVPRRKAGICFGDSGGPLICDGIIQGIDSFVIWGCATRLFPDFFTRVALYVDWIRSTLRRVEAKGRP

Tests used:
[1] = test system: MDA-MB-231 cells; experiment: Cancer cell killing, Calcein AM staining; assay type: cell-based, human; conditions: for cancer cell killing activity of purified protein: increasing doses, 5h; for cancer cell killing in combination with neutrophil conditioned media: Neu-CM 4 μg/mL, DOX 0.3 μM or PTX 3 nM, 4h
Description: Approach to identify the factor(s) mediating selective killing. A quantitative cancer cell killing assay was developed to track the bioactive factor(s). MDA-MB-231 cells were treated with various doses of PMN media and cell viability was assessed by Calcein AM live cells fluorescence staining. […] (FIG. 3B) PMN media was passed through a 0.22 μm filter, and protein concentration and killing activity on MDA-MB-231 cancer cells was measured in both pre- and post-filter solutions. […] ELANE and ECP levels in PMN media pre- and post-filtration were quantified by mass spectrometry (spectral counts).
To determine if ELANE and/or ECP were responsible, the inventors (1) immuno-depleted ELANE or ECP from PMN media; (2) treated cancer or normal cells with purified native ELANE or ECP from commercial sources. (FIG. 6A) ELANE or ECP were depleted from PMN media by immunoprecipitation; depletion was confirmed by western blotting. PMN media pre-depletion=Orig. and post-depletion=FT. Non-specific IgG was used as a control. (FIG. 6B) MDA-MB-231 cells or human monocyte-derived macrophages (HMDMs) were treated with purified native ELANE or ECP at various doses for 24h, and killing was assessed by Calcein AM staining. (FIG. 6C) MDA-MB-231 cells and HMDMs were treated with levels of ELANE (0.25 μg/mL) or ECP (0.05 μg/mL) that were present in the PMN media, alone or in combination for 24 hrs, and killing was examined by Calcein AM staining.
High doses of ECP or ELANE can kill cancer cells. The inventors sought to determine whether adding purified human ECP (Lee Biosolutions), human ELANE (Abcam), human DEFA1 (Abcam), human ANXA6 (R&D Systems) or human CASP3 (Abcam) individually could kill cancer cells without killing non-cancer cells. Increasing doses of each protein were added to MDA-MB-231 cells for 5h or human monocyte-derived macrophages (HMDMs) for 24 h and cell viability was determined by Calcein-AM.
ELANE and ECP synergize to selectively kill cancer cells. MDA-MB-231 and human monocyte-derived macrophages (HMDMs) were treated with levels of ELANE (0.25 μg/mL) or ECP (0.05 μg/mL) that were present in the PMN media, alone or in combination for 24 hrs. killing was examined by Calcein AM staining.
Combining chemotherapeutics and neutrophil conditioned media enhances the killing of human triple negative breast cancer cells. MDA-MB-231 cells were treated with neutrophil conditioned media (Neu-CM; 4 μg/mL), doxorubicin (DOX; 0.3 μM), or paclitaxel (PTX; 3 nM) for 4h, individually or in combination, and cell viability was assessed by Calcein-AM.
(§1) Other serine proteases cleave the C-terminal domain of CD95, and the ability to cleave the C-terminal domain is associated with cancer cell killing. (FIG. 12A) Full length recombinanat CD95 protein was incubated with various serine proteases (human ELANE (80 nM), PR3 (80 nM), CSTG (80 nM), PPE (80 nM), mouse ELANE (80 nM), rat ELANE (500 nM), GZMB (80 nM), or Trypsin (250 nM)), or other types of proteases (CTSC (80 nM); or MMP7 (80 nM), MMP9 (80 nM), CTSD (80 nM) not shown) at 37° C. for 2 hours. Degradation was assessed by SDS-PAGE followed by coomassie blue staining. (FIG. 12B) MDA-MB-231 cancer cells were incubated with various proteases for 24 hrs. Cell viability was assessed by Calcein AM staining.
(FIG. 13A) MDA-MB-231 cancer cells were treated with various doses of purified native ELANE or purified native porcine pancreatic elastase (PPE) for 6 h, and killing was assessed by Calcein AM staining. (FIG. 13B). Purified native ELANE or purified native PPE was incubated with different concentrations of alpha-1-anti-trypsin (A1AT) for 15 mins. Catalytic activity was measured using a chromogenic substrate assay. Cancer cell killing capability was determined by treating MDA-MB-231 cancer cells with ELANE or PPE in the presence or absence of A1AT for 6h, followed by Calcein AM staining. (FIG. 13C) Catalytic activity was measured using a chromogenic substrate assay. […]

[2] = molecular target: T1, ELANE; experiment: Anti-ELANE magnetic bead pull-down from neutrophil conditioned media, western blotting; assay type: binding; conditions: anti-ELANE antibody beads
From the text: Identification of ECP, ELANE, ANXA6, DEFA1, and CASP3 as candidate cancer cell killing proteins in the neutrophil conditioned media. Neutrophil conditioned media was obtained from 2 different donors (Donor 1 and Donor 2). […] To determine the identity of the proteins depleted by the 0.2 μm sterile filter, the inventors performed quantitative proteomics analysis on the conditioned media from each donor pre- and post-filter. Proteomics analysis identified 2000 proteins, 4 of which (ECP, ELANE, ANXA6, and DEFA1) were depleted in samples from both donors (G-test, p<0.05). The inventors explored the possibility that these proteins might interact with or complement one another. This hypothesis was tested using two approaches. First, the inventors incubated the neutrophil conditioned media with magnetic beads coupled to an anti-ELANE antibody and analyzed the supernatant (sup), wash, and eluent (elute) by western blotting.

[3] = molecular target: T2, CD95; experiment: Recombinant CD95 degradation, SDS-PAGE and coomassie blue; assay type: biochemical; set-up: Recombinant proteins (1 μg) corresponding to full length CD95 (FL-CD95); conditions: purified CD95
Description: ELANE lowers CD95 levels in cancer cells and reduced CD95 levels are associated with apoptosis. (FIG. 8A) Recombinant proteins (1 μg) corresponding to full length CD95 (FL-CD95), N-terminal domain of CD95 (amino acids 1-173; N-CD95), or C-terminal domain of CD95 (amino acids 157-320; C-CD95) were inbuated with ELANE (0.05 μg) or vehicle (Veh) for 2 hrs at 37° C. Degradation was assessed by SDS-PAGE followed by coomassie blue staining. […] (FIG. 8C) Cancer cells were treated with ELANE (50 nM) for 1 hr, fixed in 10% formalin, and stained with N- or C-terminal specific anti-CD95 antibodies (green). Hoechst 33342 solution was used for nuclear staining (blue). Images were taken under 40×.
ELANE selectively cleaves the C-terminal domain of CD95. The CD95 pathway is essential for the survival of a wide range of cancer cells, but largely dispensable for normal cell survival (Adachi et al., Nat. Genet., 1995; Karray et al., J. Immunol., 2004). CD95 function can be modulated by proteolysis (Strand et al., Oncogene, 2004). To test CD95 involvement in ELANE mediated cell killing ELANE (0.05 μg) was incubated with 1 μg recombinant human C-terminal (aa. 157-320) or N-terminal (aa. 1-173) CD95 for 2 hrs at 37° C. Degradation was assessed by SDS-PAGE followed by staining with coomassie blue. C-terminal domain cleavage. N-terminal domain cleavage. Cancer cells were treated with ELANE (50 nM) for 1 hr, fixed in 10% formalin, and stained with N- or C-terminal specific anti-CD95 antibodies. Hoechst 33342 solution was used for nuclear staining. Images were taken under 40×. […] Mel888 cancer cells were treated with ELANE (50 nM) for various times, and CD95 degradation was assessed by western blot analysis with a C-terminal specific anti-CD95 antibody.
as §1

| Molecule | cancer cell killing activity of purified protein [1] | cancer cell killing by proteases [1] | cleavage of purified CD95 [3] | other results |
| --- | --- | --- | --- | --- |
| DEFA1: purified human DEFA1 (Abcam) | low amount of activity | – | – | binding to ELANE [2]: ELANE-binding proteins |
| cathepsin G [CTSG] | – | killed cancer cells | cleaved purified CD95 with an identical degradation pattern to ELANE | – |
| COc1cccc2c1C(=O)c1c(O)c3c(c(O)c1C2=O)C[C@@](O)(C(=O)CO)C[C@@H]3O[C@H]1C[C@H](N)[C@H](O)[C@H](C)O1 [doxorubicin, reference compound] | – | – | – | cancer cell killing in combination with neutrophil conditioned media [1]: enhanced cancer cell killing |
| CC(=O)O[C@H]1C(=O)[C@@]2(C)[C@H]([C@H](OC(=O)c3ccccc3)[C@]3(O)C[C@H](OC(=O)[C@H](O)[C@@H](NC(=O)c4ccccc4)c4ccccc4)C(C)=C1C3(C)C)[C@]1(OC(C)=O)CO[C@@H]1C[C@@H]2O [paclitaxel, reference compound] | – | – | – | cancer cell killing in combination with neutrophil conditioned media [1]: enhanced cancer cell killing |
| B1 | could not kill cancer cells | – | – | binding to ELANE [2]: ELANE-binding proteins |
| B2 | – | killed cancer cells | cleaved purified CD95 with an identical degradation pattern to ELANE | – |
| B3 | could not kill cancer cells | – | – | – |
| B4 | – | killed cancer cells | cleaved purified CD95 with an identical degradation pattern to ELANE | – |
